Measurements as given in US20040002582A1 (University of Texas, published 2004).
No end group written: not given here.

Columns and labels:
POW-E-D3 = biological target: T1, POW-E-D3 (Powassan virus, UniProt Q04538 579-674)
T1 sequence: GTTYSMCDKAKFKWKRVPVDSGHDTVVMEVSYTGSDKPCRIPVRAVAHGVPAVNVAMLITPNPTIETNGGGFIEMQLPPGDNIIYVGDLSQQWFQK

LGT virus = biological target: T2, LGT virus (Langat virus, UniProt P29837 281-776); assay: cell-based or functional assay
T2 sequence: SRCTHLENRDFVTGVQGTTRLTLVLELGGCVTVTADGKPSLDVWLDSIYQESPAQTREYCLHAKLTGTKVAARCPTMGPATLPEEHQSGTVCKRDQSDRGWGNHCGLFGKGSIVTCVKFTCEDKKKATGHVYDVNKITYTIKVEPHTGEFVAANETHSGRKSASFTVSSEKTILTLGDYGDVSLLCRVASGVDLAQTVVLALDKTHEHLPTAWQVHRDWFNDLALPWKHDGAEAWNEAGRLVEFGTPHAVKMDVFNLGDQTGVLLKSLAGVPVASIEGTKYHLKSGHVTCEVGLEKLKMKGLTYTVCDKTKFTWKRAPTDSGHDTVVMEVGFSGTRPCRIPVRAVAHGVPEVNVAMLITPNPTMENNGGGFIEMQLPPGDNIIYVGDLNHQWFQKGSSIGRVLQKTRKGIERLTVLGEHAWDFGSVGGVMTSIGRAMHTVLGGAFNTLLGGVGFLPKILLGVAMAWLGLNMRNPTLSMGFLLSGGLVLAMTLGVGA

RCCHPQCKEGKKCR (designed binder, not fully specified; cysteine pairing not given here) [MP-100]
level of enrichment (ratio of enriched signal/library signal) (POW-E-D3): > 1.5 ratio of enriched signal/library signal | reduction of viral titer in Vero cells at 24 hpi (LGT virus): ~300 fold | reduction of viral titer in Vero cells at 36 hpi (LGT virus): ~100 fold
